Fewer inactive variants are shown than the library holds.
What was measured:
biotinyl-Leu-oxazolone = test: self-aminoacylation, catalytic enhancement (BLO) (fold over background); higher = more active; k-Seq, kA / k0A0; sequences stand for … in GGGAAUGGAUCCACAUCUACGAAUUC…UUCACUGCAGACUUGACGAAGCUG
Method in brief: (§1)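 Catalytic enhancement equals the median kA over the uncatalyzed rate, the latter read from the low-activity peak of a bimodal Gaussian fit. Values of kA came from fitting each sequence's fraction reacted to a pseudo-first-order model, with 1000 bootstraps. Reacted RNA was captured with streptavidin and quantified by triplicate qPCR and Illumina sequencing after 90 minutes at room temperature with 2–1250 μM biotinyl-aminoacyl-oxazolone and 0.43 μM mutagenized RNA pools bearing a 21-nt variable region.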

biotinyl-Ile-oxazolone = test: self-aminoacylation, catalytic enhancement (BIO) (fold over background); higher = more active; k-Seq, kA / k0A0; sequences stand for … in GGGAAUGGAUCCACAUCUACGAAUUC…UUCACUGCAGACUUGACGAAGCUG
Method in brief: as §1

biotinyl-Val-oxazolone = test: self-aminoacylation, catalytic enhancement (BVO) (fold over background); higher = more active; k-Seq, kA / k0A0; sequences stand for … in GGGAAUGGAUCCACAUCUACGAAUUC…UUCACUGCAGACUUGACGAAGCUG
Method in brief: as §1

biotinyl-Trp-oxazolone = test: self-aminoacylation, catalytic enhancement (BWO) (fold over background); higher = more active; k-Seq, kA / k0A0; sequences stand for … in GGGAAUGGAUCCACAUCUACGAAUUC…UUCACUGCAGACUUGACGAAGCUG
Method in brief: as §1

biotinyl-Phe-oxazolone = test: self-aminoacylation, catalytic enhancement (BFO) (fold over background); higher = more active; k-Seq, kA / k0A0; sequences stand for … in GGGAAUGGAUCCACAUCUACGAAUUC…UUCACUGCAGACUUGACGAAGCUG
Method in brief: as §1

biotinyl-Met-oxazolone = test: self-aminoacylation, catalytic enhancement (BMO) (fold over background); higher = more active; k-Seq, kA / k0A0; sequences stand for … in GGGAAUGGAUCCACAUCUACGAAUUC…UUCACUGCAGACUUGACGAAGCUG
Method in brief: as §1

AUUCAGCUAGGUCAUCGGGUU [Fam2.2 aminoacylation ribozyme variant]
self-aminoacylation (biotinyl-Leu-oxazolone): 2.5
self-aminoacylation (biotinyl-Ile-oxazolone): 2.81
self-aminoacylation (biotinyl-Val-oxazolone): 2.79
self-aminoacylation (biotinyl-Trp-oxazolone): 3.38
self-aminoacylation (biotinyl-Phe-oxazolone): 18.7
self-aminoacylation (biotinyl-Met-oxazolone): 3.1

ACUCACUUAGGUCAUCGGGUG [Fam2.2 aminoacylation ribozyme variant]
self-aminoacylation (biotinyl-Leu-oxazolone): 7.98
self-aminoacylation (biotinyl-Ile-oxazolone): 4.73
self-aminoacylation (biotinyl-Val-oxazolone): 5.12
self-aminoacylation (biotinyl-Trp-oxazolone): 7.25
self-aminoacylation (biotinyl-Phe-oxazolone): 49.6
self-aminoacylation (biotinyl-Met-oxazolone): 5.78

CUAAUUCAAACGAUCGGUCUG [Fam1A.1 aminoacylation ribozyme variant]
self-aminoacylation (biotinyl-Leu-oxazolone): 0.72
self-aminoacylation (biotinyl-Ile-oxazolone): 0.689
self-aminoacylation (biotinyl-Val-oxazolone): 0.648
self-aminoacylation (biotinyl-Trp-oxazolone): 0.656
self-aminoacylation (biotinyl-Phe-oxazolone): 0.8
self-aminoacylation (biotinyl-Met-oxazolone): 0.696

CCACACUUCAAGCAAGCGGCC [Fam1B.1 aminoacylation ribozyme variant]
self-aminoacylation (biotinyl-Leu-oxazolone): 3.28
self-aminoacylation (biotinyl-Ile-oxazolone): 2.38
self-aminoacylation (biotinyl-Val-oxazolone): 2.96
self-aminoacylation (biotinyl-Trp-oxazolone): 1.46
self-aminoacylation (biotinyl-Phe-oxazolone): 0.898
self-aminoacylation (biotinyl-Met-oxazolone): 2.63

CUACUUCUUACAAUCGGUCUG [Fam1A.1 aminoacylation ribozyme variant]
self-aminoacylation (biotinyl-Leu-oxazolone): 0.624
self-aminoacylation (biotinyl-Ile-oxazolone): 0.767
self-aminoacylation (biotinyl-Val-oxazolone): 0.707
self-aminoacylation (biotinyl-Trp-oxazolone): 0.524
self-aminoacylation (biotinyl-Phe-oxazolone): 0.695
self-aminoacylation (biotinyl-Met-oxazolone): 0.812

CUACUUCAAAGAAUCGGUCAG [Fam1A.1 aminoacylation ribozyme variant]
self-aminoacylation (biotinyl-Leu-oxazolone): 0.601
self-aminoacylation (biotinyl-Ile-oxazolone): 0.652
self-aminoacylation (biotinyl-Val-oxazolone): 0.658
self-aminoacylation (biotinyl-Trp-oxazolone): 0.818
self-aminoacylation (biotinyl-Phe-oxazolone): 1.48
self-aminoacylation (biotinyl-Met-oxazolone): 0.574

AAUACCCUGGUCAUCAAGUGA [Fam2.1 aminoacylation ribozyme variant]
self-aminoacylation (biotinyl-Leu-oxazolone): 1.56
self-aminoacylation (biotinyl-Ile-oxazolone): 1.15
self-aminoacylation (biotinyl-Val-oxazolone): 1.16
self-aminoacylation (biotinyl-Trp-oxazolone): 1.75
self-aminoacylation (biotinyl-Phe-oxazolone): 2.42
self-aminoacylation (biotinyl-Met-oxazolone): 1.48

CUACUUCAAACGAUCGGUAUG [Fam1A.1 aminoacylation ribozyme variant]
self-aminoacylation (biotinyl-Leu-oxazolone): 0.591
self-aminoacylation (biotinyl-Ile-oxazolone): 0.544
self-aminoacylation (biotinyl-Val-oxazolone): 0.675
self-aminoacylation (biotinyl-Trp-oxazolone): 0.727
self-aminoacylation (biotinyl-Phe-oxazolone): 0.588
self-aminoacylation (biotinyl-Met-oxazolone): 0.585

AAUACCCUGGUCAUCGAGUAA [Fam2.1 aminoacylation ribozyme variant]
self-aminoacylation (biotinyl-Leu-oxazolone): 1.93
self-aminoacylation (biotinyl-Ile-oxazolone): 1.41
self-aminoacylation (biotinyl-Val-oxazolone): 1.54
self-aminoacylation (biotinyl-Trp-oxazolone): 1.32
self-aminoacylation (biotinyl-Phe-oxazolone): 3.36
self-aminoacylation (biotinyl-Met-oxazolone): 1.51

AUUACCCUUGUCAUCGAGUGA [Fam2.1 aminoacylation ribozyme variant]
self-aminoacylation (biotinyl-Leu-oxazolone): 5.88
self-aminoacylation (biotinyl-Ile-oxazolone): 3.19
self-aminoacylation (biotinyl-Val-oxazolone): 3.54
self-aminoacylation (biotinyl-Trp-oxazolone): 7.65
self-aminoacylation (biotinyl-Phe-oxazolone): 21.8
self-aminoacylation (biotinyl-Met-oxazolone): 5.94

AUGACCCUGGUCAUGGAGUGA [Fam2.1 aminoacylation ribozyme variant]
self-aminoacylation (biotinyl-Leu-oxazolone): 4.81
self-aminoacylation (biotinyl-Ile-oxazolone): 2.56
self-aminoacylation (biotinyl-Val-oxazolone): 2.73
self-aminoacylation (biotinyl-Trp-oxazolone): 4.08
self-aminoacylation (biotinyl-Phe-oxazolone): 26.2
self-aminoacylation (biotinyl-Met-oxazolone): 4.69

AAGUUUUCUAAUAGUCGCACG [Fam3.1 aminoacylation ribozyme variant]
self-aminoacylation (biotinyl-Leu-oxazolone): 1.24
self-aminoacylation (biotinyl-Ile-oxazolone): 1.3
self-aminoacylation (biotinyl-Val-oxazolone): 1.25
self-aminoacylation (biotinyl-Trp-oxazolone): 1.34
self-aminoacylation (biotinyl-Phe-oxazolone): 1.8
self-aminoacylation (biotinyl-Met-oxazolone): 1.38

AUUCACCUAGCGCAUCGGGUG [Fam2.2 aminoacylation ribozyme variant]
self-aminoacylation (biotinyl-Leu-oxazolone): 2.96
self-aminoacylation (biotinyl-Ile-oxazolone): 1.55
self-aminoacylation (biotinyl-Val-oxazolone): 1.68
self-aminoacylation (biotinyl-Trp-oxazolone): 2.14
self-aminoacylation (biotinyl-Phe-oxazolone): 10
self-aminoacylation (biotinyl-Met-oxazolone): 1.72

AAGGUUGCUAAUAGUCGCAAG [Fam3.1 aminoacylation ribozyme variant]
self-aminoacylation (biotinyl-Leu-oxazolone): 1.25
self-aminoacylation (biotinyl-Ile-oxazolone): 1.32
self-aminoacylation (biotinyl-Val-oxazolone): 1.23
self-aminoacylation (biotinyl-Trp-oxazolone): 2.64
self-aminoacylation (biotinyl-Phe-oxazolone): 6.56
self-aminoacylation (biotinyl-Met-oxazolone): 1.29

CUAUUUCAAACACUCGGUCUG [Fam1A.1 aminoacylation ribozyme variant]
self-aminoacylation (biotinyl-Leu-oxazolone): 0.875
self-aminoacylation (biotinyl-Ile-oxazolone): 0.995
self-aminoacylation (biotinyl-Val-oxazolone): 0.921
self-aminoacylation (biotinyl-Trp-oxazolone): 0.925
self-aminoacylation (biotinyl-Phe-oxazolone): 1.36
self-aminoacylation (biotinyl-Met-oxazolone): 0.95

CCACAGUUUAAGCAAUCGGUC [Fam1B.1 aminoacylation ribozyme variant]
self-aminoacylation (biotinyl-Leu-oxazolone): 0.786
self-aminoacylation (biotinyl-Ile-oxazolone): 0.82
self-aminoacylation (biotinyl-Val-oxazolone): 0.758
self-aminoacylation (biotinyl-Trp-oxazolone): 0.708
self-aminoacylation (biotinyl-Phe-oxazolone): 0.825
self-aminoacylation (biotinyl-Met-oxazolone): 0.857

AUAACACUGGUCAUCGAGUGA [Fam2.1 aminoacylation ribozyme variant]
self-aminoacylation (biotinyl-Leu-oxazolone): 4.62
self-aminoacylation (biotinyl-Ile-oxazolone): 2.83
self-aminoacylation (biotinyl-Val-oxazolone): 3.06
self-aminoacylation (biotinyl-Trp-oxazolone): 6.89
self-aminoacylation (biotinyl-Phe-oxazolone): 14.7
self-aminoacylation (biotinyl-Met-oxazolone): 4.84

AUUACCCUGGUCGUCGAGUGU [Fam2.1 aminoacylation ribozyme variant]
self-aminoacylation (biotinyl-Leu-oxazolone): 1.08
self-aminoacylation (biotinyl-Ile-oxazolone): 1.07
self-aminoacylation (biotinyl-Val-oxazolone): 1.2
self-aminoacylation (biotinyl-Trp-oxazolone): 1.15
self-aminoacylation (biotinyl-Phe-oxazolone): 2.78
self-aminoacylation (biotinyl-Met-oxazolone): 1.39

CUACUCCAAACAAUCGGUCUA [Fam1A.1 aminoacylation ribozyme variant]
self-aminoacylation (biotinyl-Leu-oxazolone): 0.746
self-aminoacylation (biotinyl-Ile-oxazolone): 0.767
self-aminoacylation (biotinyl-Val-oxazolone): 0.808
self-aminoacylation (biotinyl-Trp-oxazolone): 1.05
self-aminoacylation (biotinyl-Phe-oxazolone): 2.18
self-aminoacylation (biotinyl-Met-oxazolone): 0.638

AUUUCCCUGGUCAGCGAGUGA [Fam2.1 aminoacylation ribozyme variant]
self-aminoacylation (biotinyl-Leu-oxazolone): 6.54
self-aminoacylation (biotinyl-Ile-oxazolone): 4.15
self-aminoacylation (biotinyl-Val-oxazolone): 3.85
self-aminoacylation (biotinyl-Trp-oxazolone): 6.86
self-aminoacylation (biotinyl-Phe-oxazolone): 37.4
self-aminoacylation (biotinyl-Met-oxazolone): 6.28

UUUACCCUGGUCAUCGAGUGC [Fam2.1 aminoacylation ribozyme variant]
self-aminoacylation (biotinyl-Leu-oxazolone): 6.26
self-aminoacylation (biotinyl-Ile-oxazolone): 2.52
self-aminoacylation (biotinyl-Val-oxazolone): 2.99
self-aminoacylation (biotinyl-Trp-oxazolone): 5.5
self-aminoacylation (biotinyl-Phe-oxazolone): 16.5
self-aminoacylation (biotinyl-Met-oxazolone): 6.81

AUUCACCUUGGUCAUGGGGUG [Fam2.2 aminoacylation ribozyme variant]
self-aminoacylation (biotinyl-Leu-oxazolone): 6.08
self-aminoacylation (biotinyl-Ile-oxazolone): 2.91
self-aminoacylation (biotinyl-Val-oxazolone): 3.36
self-aminoacylation (biotinyl-Trp-oxazolone): 4.27
self-aminoacylation (biotinyl-Phe-oxazolone): 26.8
self-aminoacylation (biotinyl-Met-oxazolone): 4.32

AUUACCCUGGUAAUCGAGUGC [Fam2.1 aminoacylation ribozyme variant]
self-aminoacylation (biotinyl-Leu-oxazolone): 1.04
self-aminoacylation (biotinyl-Ile-oxazolone): 0.957
self-aminoacylation (biotinyl-Val-oxazolone): 0.801
self-aminoacylation (biotinyl-Trp-oxazolone): 0.656
self-aminoacylation (biotinyl-Phe-oxazolone): 1.38
self-aminoacylation (biotinyl-Met-oxazolone): 1.12
